Results as given in EP4755449A2 (CHUGAI SEIYAKU KABUSHIKI KAISHA, dated 2026).
Substitutions are numbered along the chain they refer to. Numbers in names are those of the source.

Key:
[1] = biological target: T1, human Fc gamma RIIb extracellular domain, His-tagged (human, UniProt P31994 43-217); test: SPR 25C, antigen-antibody complex injected over captured His-tagged receptor
T1 construct: also called FcgRIIb
T1 sequence: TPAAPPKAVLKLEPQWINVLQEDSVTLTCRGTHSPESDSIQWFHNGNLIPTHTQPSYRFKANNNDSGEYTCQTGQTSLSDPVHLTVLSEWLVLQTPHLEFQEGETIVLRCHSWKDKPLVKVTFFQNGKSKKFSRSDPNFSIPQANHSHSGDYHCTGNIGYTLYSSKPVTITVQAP

human latent myostatin [2] = biological target: T2, human latent myostatin (human, UniProt O14793 25-266; O14793 267-375); test: SPR affinity condition pH5.8 37C; pH 5.8
T2 construct: non-covalent complex of two propeptides and the mature homodimer; also called human myostatin latent form
T2 sequence 1: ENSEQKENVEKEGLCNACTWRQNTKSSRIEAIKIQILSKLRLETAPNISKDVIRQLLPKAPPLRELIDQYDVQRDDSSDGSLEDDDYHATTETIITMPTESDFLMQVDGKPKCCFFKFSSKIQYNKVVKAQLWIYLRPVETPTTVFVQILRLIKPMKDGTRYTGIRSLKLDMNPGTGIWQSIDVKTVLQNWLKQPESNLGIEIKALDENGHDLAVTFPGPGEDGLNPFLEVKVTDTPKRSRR
T2 sequence 2: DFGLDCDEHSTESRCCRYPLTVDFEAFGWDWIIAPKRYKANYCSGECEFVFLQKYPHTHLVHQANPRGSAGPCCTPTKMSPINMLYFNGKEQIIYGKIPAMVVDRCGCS

[3] = biological target: T3, cynomolgus monkey latent myostatin (cynomolgus monkey, UniProt Q95J86 25-266; Q95J86 267-375, limits assumed); test: SPR affinity condition pH5.8 37C; pH 5.8
T3 construct: also called cyno latent myostatin
T3 sequence 1: T2 sequence 1 with V52A
T3 sequence 2: T2 sequence 2

mouse latent myostatin [4] = biological target: T4, mouse latent myostatin (mouse, UniProt O08689 26-267; O08689 268-376); test: SPR affinity condition pH5.8 37C; pH 5.8
T4 sequence 1: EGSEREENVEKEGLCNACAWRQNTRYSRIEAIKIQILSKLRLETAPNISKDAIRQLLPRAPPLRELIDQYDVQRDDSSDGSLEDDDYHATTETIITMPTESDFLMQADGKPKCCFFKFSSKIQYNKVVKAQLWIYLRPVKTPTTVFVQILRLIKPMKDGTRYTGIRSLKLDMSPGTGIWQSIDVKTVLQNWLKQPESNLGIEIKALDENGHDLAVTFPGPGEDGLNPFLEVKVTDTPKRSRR
T4 sequence 2: T2 sequence 2

human latent myostatin [5] = biological target: T2, human latent myostatin; test: SPR, dissociation phase at pH5.8
human latent myostatin [6] = biological target: T2, human latent myostatin; test: SPR affinity condition pH7.4 37C; pH 7.4
[7] = biological target: T3, cynomolgus monkey latent myostatin; test: SPR affinity condition pH7.4 37C; pH 7.4
mouse latent myostatin [8] = biological target: T4, mouse latent myostatin; test: SPR affinity condition pH7.4 37C; pH 7.4
human latent myostatin [9] = biological target: T2, human latent myostatin; test: SPR 37C pH7.4
human latent myostatin [10] = biological target: T2, human latent myostatin; test: SPR avidity condition pH7.4 37C; pH 7.4
[11] = biological target: T3, cynomolgus monkey latent myostatin; test: SPR avidity condition pH7.4 37C; pH 7.4
mouse latent myostatin [12] = biological target: T4, mouse latent myostatin; test: SPR avidity condition pH7.4 37C; pH 7.4
human latent myostatin [13] = biological target: T2, human latent myostatin; test: SPR avidity condition pH5.8 37C; pH 5.8
[14] = biological target: T3, cynomolgus monkey latent myostatin; test: SPR avidity condition pH5.8 37C; pH 5.8
mouse latent myostatin [15] = biological target: T4, mouse latent myostatin; test: SPR avidity condition pH5.8 37C; pH 5.8
human latent myostatin [16] = biological target: T2, human latent myostatin; test: SPR affinity condition pH7.4 37C
[17] = biological target: T3, cynomolgus monkey latent myostatin; test: SPR affinity condition pH7.4 37C
mouse latent myostatin [18] = biological target: T4, mouse latent myostatin; test: SPR affinity condition pH7.4 37C
GST-hMSTN 101-200aa = biological target: T5, GST-hMSTN 101-200aa (human, UniProt A1C2U3 101-200 (Pongo pygmaeus entry)); test: Western blot
T5 construct: not shown: GST tag of pGEX4.1 vector
T5 sequence: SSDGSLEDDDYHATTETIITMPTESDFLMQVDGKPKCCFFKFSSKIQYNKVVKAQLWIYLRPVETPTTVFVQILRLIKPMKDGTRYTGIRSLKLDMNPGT

GST-hMSTN 141-241aa = biological target: T6, GST-hMSTN 141-241aa (human, UniProt A1C2U3 141-241 (Pongo pygmaeus entry)); test: Western blot
T6 construct: not shown: GST tag of pGEX4.1 vector
T6 sequence: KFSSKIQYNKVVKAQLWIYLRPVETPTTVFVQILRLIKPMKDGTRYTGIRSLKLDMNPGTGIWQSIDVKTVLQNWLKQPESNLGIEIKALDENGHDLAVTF

GST-hMSTN 121-220aa = biological target: T7, GST-hMSTN 121-220aa (human, UniProt A1C2U3 121-220 (Pongo pygmaeus entry)); test: Western blot
T7 construct: not shown: GST tag of pGEX4.1 vector
T7 sequence: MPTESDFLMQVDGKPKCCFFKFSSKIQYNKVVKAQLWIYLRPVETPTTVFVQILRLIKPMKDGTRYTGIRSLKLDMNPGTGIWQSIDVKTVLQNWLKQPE

[19] = biological target: T8, human Fc gamma RIIIaV extracellular domain, His-tagged (human, UniProt P08637 17-208); test: SPR 25C
T8 construct: also called FcgRIIIaV
T8 sequence (P08637 17-208 F176V): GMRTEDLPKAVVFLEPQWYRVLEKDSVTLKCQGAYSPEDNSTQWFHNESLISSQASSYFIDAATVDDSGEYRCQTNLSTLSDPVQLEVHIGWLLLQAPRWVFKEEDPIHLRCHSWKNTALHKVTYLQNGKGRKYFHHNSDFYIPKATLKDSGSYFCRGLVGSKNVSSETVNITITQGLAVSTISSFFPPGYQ

B1: MS1032LO06-P1499m (antibody, human IgG1, kappa)
heavy: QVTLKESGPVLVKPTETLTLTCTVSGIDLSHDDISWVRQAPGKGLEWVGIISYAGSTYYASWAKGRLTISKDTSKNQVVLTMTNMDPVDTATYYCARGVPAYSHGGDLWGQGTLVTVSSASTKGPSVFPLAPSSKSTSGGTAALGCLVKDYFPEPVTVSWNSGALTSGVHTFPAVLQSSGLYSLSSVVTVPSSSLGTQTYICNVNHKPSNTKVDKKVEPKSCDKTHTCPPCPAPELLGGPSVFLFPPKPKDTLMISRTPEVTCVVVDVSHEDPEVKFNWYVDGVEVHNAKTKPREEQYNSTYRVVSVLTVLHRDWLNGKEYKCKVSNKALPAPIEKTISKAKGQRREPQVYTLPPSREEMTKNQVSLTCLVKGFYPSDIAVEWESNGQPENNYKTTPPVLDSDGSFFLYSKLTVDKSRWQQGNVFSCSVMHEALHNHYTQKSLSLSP
light: DIVMTQSPATLSLSPGERATLSCTSSQSVYHANWLSWFQQKPGQPPKLLIYWASTLAYGVPSRFSGSGSGTDFTLTISSLQPEDAATYYCAGGYGGGRYAFGQGTKVEIKRTVAAPSVFIFPPSDEQLKSGTASVVCLLNNFYPREAKVQWKVDNALQSGNSQESVTEQDSKDSTYSLSSTLTLSKADYEKHKVYACEVTHQGLSSPVTKSFNRGEC
B1: binds [1].

B2: MS1032LO06-P1540m (antibody, human IgG1, kappa)
heavy: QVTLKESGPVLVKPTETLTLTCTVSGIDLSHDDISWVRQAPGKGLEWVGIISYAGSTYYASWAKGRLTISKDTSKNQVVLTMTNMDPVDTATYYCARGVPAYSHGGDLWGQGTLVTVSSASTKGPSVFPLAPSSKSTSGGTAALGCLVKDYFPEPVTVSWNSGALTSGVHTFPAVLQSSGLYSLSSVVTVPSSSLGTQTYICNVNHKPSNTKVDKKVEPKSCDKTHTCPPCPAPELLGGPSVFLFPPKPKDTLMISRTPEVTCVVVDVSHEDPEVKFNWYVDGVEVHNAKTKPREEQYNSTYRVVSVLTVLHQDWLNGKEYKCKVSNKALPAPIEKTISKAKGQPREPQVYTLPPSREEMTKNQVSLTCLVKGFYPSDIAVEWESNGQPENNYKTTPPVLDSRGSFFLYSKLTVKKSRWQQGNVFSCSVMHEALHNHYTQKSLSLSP
light: B1 light
notes: copies: 2 + 2
B2: binds [1].

B3: MS103205H795-SG141/M103202L889-SK1 (antibody, human IgG1, kappa)
heavy: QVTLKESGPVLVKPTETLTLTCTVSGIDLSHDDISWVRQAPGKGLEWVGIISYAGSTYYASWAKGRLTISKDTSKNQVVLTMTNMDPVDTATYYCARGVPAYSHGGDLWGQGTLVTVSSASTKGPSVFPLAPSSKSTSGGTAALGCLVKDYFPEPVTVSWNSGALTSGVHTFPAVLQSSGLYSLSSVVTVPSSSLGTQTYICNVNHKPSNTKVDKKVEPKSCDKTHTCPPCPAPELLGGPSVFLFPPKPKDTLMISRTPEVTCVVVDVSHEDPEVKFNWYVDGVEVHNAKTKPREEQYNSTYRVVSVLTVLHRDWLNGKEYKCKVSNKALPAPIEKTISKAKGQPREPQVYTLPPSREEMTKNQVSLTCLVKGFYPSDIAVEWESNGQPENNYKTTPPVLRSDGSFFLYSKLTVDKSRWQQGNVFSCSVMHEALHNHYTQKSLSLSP
light: B1 light
notes: copies: 2 + 2
B3: binds [1].

B4: MS_M103205H000-SG1/M103202L000-SK1 (antibody, human IgG1, kappa, V domains shown)
VH: QVTLKESGPVLVKPTETLTLTCTVSGIDLSSYDISWVRQAPGKGLEWVGIISYAGSTYYASWAKGRLTISKDTSKNQVVLTMTNMDPVDTATYYCARGVPAYSTGGDLWGQGTLVTVSS
VL: DIVMTQSPATLSLSPGERATLSCQSSQSVYDNNWLSWFQQKPGQPPKLLIYWASTLASGVPSRFSGSGSGTDFTLTISSLQPEDAATYYCAGGYGGGLYAFGQGTKVEIKR
notes: humanized; also called MS1032LO00-SG1; Ab001
B4 showed a Kd (human latent myostatin [2]) of 0.215 nM, a koff (human latent myostatin [2]) of 0.000235 s⁻¹ and a kon (human latent myostatin [2]) of 1.09e+06 M⁻¹ s⁻¹. The Kd [3] was 0.139 nM, the koff [3] was 0.000196 s⁻¹ and the kon [3] was 1.41e+06 M⁻¹ s⁻¹. For the same binder, the Kd (mouse latent myostatin [4]) was 0.0438 nM, the koff (mouse latent myostatin [4]) was 7.08e-05 s⁻¹ and the kon (mouse latent myostatin [4]) was 1.62e+06 M⁻¹ s⁻¹. For the same binder, the koff (human latent myostatin [5]) was 2.92e-05 s⁻¹, the Kd (human latent myostatin [6]) was 0.23 nM and the koff (human latent myostatin [6]) was 0.000245 s⁻¹. The kon (human latent myostatin [6]) was 1.07e+06 M⁻¹ s⁻¹, the Kd [7] was 0.209 nM and the koff [7] was 0.000213 s⁻¹. For the same binder, the kon [7] was 1.02e+06 M⁻¹ s⁻¹, the Kd (mouse latent myostatin [8]) was 0.122 nM and the koff (mouse latent myostatin [8]) was 0.00016 s⁻¹. It also gave a kon (mouse latent myostatin [8]) of 1.31e+06 M⁻¹ s⁻¹, a Kd (human latent myostatin [9]) of 0.075 nM and a koff (human latent myostatin [9]) of 9.52e-05 s⁻¹. It also gave a kon (human latent myostatin [9]) of 1.27e+06 M⁻¹ s⁻¹, a Kd (human latent myostatin [10]) of 0.075 nM and a koff (human latent myostatin [10]) of 9.52e-05 s⁻¹. For the same binder, the kon (human latent myostatin [10]) was 1.27e+06 M⁻¹ s⁻¹, the Kd [11] was 0.0666 nM and the koff [11] was 8.08e-05 s⁻¹. It also gave a kon [11] of 1.21e+06 M⁻¹ s⁻¹, a Kd (mouse latent myostatin [12]) of 0.0471 nM and a koff (mouse latent myostatin [12]) of 7.18e-05 s⁻¹. The kon (mouse latent myostatin [12]) was 1.52e+06 M⁻¹ s⁻¹, the Kd (human latent myostatin [13]) was 0.0797 nM and the koff (human latent myostatin [13]) was 0.000128 s⁻¹. It also gave a kon (human latent myostatin [13]) of 1.6e+06 M⁻¹ s⁻¹, a Kd [14] of 0.00883 nM and a koff [14] of 1.58e-05 s⁻¹. The kon [14] was 1.79e+06 M⁻¹ s⁻¹, the Kd (mouse latent myostatin [15]) was 0.0087 nM and the koff (mouse latent myostatin [15]) was 2.02e-05 s⁻¹. The kon (mouse latent myostatin [15]) was 2.32e+06 M⁻¹ s⁻¹.

B5: Ab006 (M103205H000/M103202L008) (antibody, V domains shown)
VH: B4 VH
VL: B4 VL with D31H
notes: variant of MS1032LO00-SG1
B5 was tested, and the koff (human latent myostatin [5]) was 8.58e-05 s⁻¹.

B6: Ab007 (M103205H028/M103202L008) (antibody, V domains shown)
VH: B4 VH with T104H
VL: B4 VL with D31H
notes: variant of MS1032LO00-SG1
Binder B6 has a koff (human latent myostatin [5]) of 0.000415 s⁻¹.

B7: Ab005 (M103205H028/M103202L000) (antibody, V domains shown)
VH: B4 VH with T104H
VL: B4 VL
notes: variant of MS1032LO00-SG1
B7 showed a koff (human latent myostatin [5]) of 7.63e-05 s⁻¹.

B8: MS_M103205H714-SG1/M103202L861-SK1 (antibody, human IgG1, kappa, V domains shown)
VH: B4 VH with S31H, Y32T, T104H
VL: B4 VL with Q24T, D31H, S58Y, L98R
notes: also called MS1032LO01-SG1
Work on B8 yielded a Kd (human latent myostatin [16]) of 0.788 nM, a koff (human latent myostatin [16]) of 0.00129 s⁻¹ and a kon (human latent myostatin [16]) of 1.64e+06 M⁻¹ s⁻¹. It also gave a Kd [17] of 0.954 nM, a koff [17] of 0.0011 s⁻¹ and a kon [17] of 1.15e+06 M⁻¹ s⁻¹. For the same binder, the Kd (mouse latent myostatin [18]) was 0.713 nM, the koff (mouse latent myostatin [18]) was 0.00107 s⁻¹ and the kon (mouse latent myostatin [18]) was 1.5e+06 M⁻¹ s⁻¹. The Kd [11] was 0.165 nM, the koff [11] was 0.000197 s⁻¹ and the kon [11] was 1.19e+06 M⁻¹ s⁻¹. The Kd (mouse latent myostatin [12]) was 0.149 nM, the koff (mouse latent myostatin [12]) was 0.000217 s⁻¹ and the kon (mouse latent myostatin [12]) was 1.45e+06 M⁻¹ s⁻¹. The Kd (human latent myostatin [13]) was 19.5 nM, the koff (human latent myostatin [13]) was 0.0242 s⁻¹ and the kon (human latent myostatin [13]) was 1.22e+06 M⁻¹ s⁻¹. For the same binder, the Kd [14] was 8.9 nM, the koff [14] was 0.0068 s⁻¹ and the kon [14] was 764000 M⁻¹ s⁻¹. For the same binder, the Kd (mouse latent myostatin [15]) was 6.15 nM, the koff (mouse latent myostatin [15]) was 0.00625 s⁻¹ and the kon (mouse latent myostatin [15]) was 1.02e+06 M⁻¹ s⁻¹.

B9: MST1032 (as used in Example 26) (antibody, V domains shown)
VH: QSLEESGGRLVTPGGSLTVTCRVSGIDLSSYDISWVRQAPGKGLEWIGIISYAGSTYYASWAKGRFTISKTSTTVDLKMTSLTTEDTATYFCARGVPAYSTGGDLWGPGTLVTVSS
VL: AQVLTQTASSVSAAVGGTVTINCQSSQSVYDNNWLSWFQQKPGQPPKLLIYWASTLASGVPSRFKGSGSGTQFTLTISDLECDDAATYYCAGGYGGGLYAFGGGTKVEIK
B9: no binding (GST-hMSTN 101-200aa); no binding (GST-hMSTN 141-241aa); no binding (GST-hMSTN 121-220aa).

B10: GpH7-B3 G237Y/GpL16-k0 (antibody, human IgG1, kappa)
heavy: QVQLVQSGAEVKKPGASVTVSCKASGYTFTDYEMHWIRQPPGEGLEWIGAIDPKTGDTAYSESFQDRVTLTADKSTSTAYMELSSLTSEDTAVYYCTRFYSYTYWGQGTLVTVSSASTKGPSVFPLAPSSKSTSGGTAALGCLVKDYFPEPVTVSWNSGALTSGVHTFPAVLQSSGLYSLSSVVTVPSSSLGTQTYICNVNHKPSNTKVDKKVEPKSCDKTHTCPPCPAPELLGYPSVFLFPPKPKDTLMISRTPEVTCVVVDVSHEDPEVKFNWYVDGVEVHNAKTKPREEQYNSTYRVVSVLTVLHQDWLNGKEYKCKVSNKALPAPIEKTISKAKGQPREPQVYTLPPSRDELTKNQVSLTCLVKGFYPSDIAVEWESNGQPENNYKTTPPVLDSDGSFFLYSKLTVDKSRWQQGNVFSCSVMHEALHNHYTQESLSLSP
light: DIVMTQSPLSLPVTPGEPASISCQASESLVHSNRNTYLHWYLQKPGQSPQLLIYKVSNRFSGVPDRFSGSGSGTDFTLKISRVEAEDVGVYYCSQNTHVPPTFGQGTKVEIERTVAAPSVFIFPPSDEQLKSGTASVVCLLNNFYPREAKVQWKVDNALQSGNSQESVTEQDSKDSTYSLSSTLTLSKADYEKHKVYACEVTHQGLSSPVTKSFNRGEC
notes: copies: 2 + 2
B10 was tested, and the relative binding [19] was 0 parent B3=100.

B11: GpH7-B3 N325L/GpL16-k0 (antibody, human IgG1, kappa)
heavy: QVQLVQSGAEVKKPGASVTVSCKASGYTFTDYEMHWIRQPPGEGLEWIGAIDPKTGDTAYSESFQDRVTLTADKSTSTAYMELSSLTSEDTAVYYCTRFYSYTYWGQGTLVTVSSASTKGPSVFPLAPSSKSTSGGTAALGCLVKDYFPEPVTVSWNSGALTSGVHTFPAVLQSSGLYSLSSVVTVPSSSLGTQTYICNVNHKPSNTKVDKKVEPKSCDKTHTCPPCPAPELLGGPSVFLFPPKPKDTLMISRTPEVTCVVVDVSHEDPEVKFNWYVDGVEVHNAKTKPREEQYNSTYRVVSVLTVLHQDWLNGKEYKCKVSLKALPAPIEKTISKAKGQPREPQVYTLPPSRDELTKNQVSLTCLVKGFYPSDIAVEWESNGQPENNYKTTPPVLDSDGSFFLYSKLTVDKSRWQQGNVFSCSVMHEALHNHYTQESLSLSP
light: B10 light
notes: copies: 2 + 2
With B11 the relative binding [19] was 0 parent B3=100.
